These results are taken from IntAct's records for PubMed 29849149.

The labels stand for the following.
B1: Beclin-1 (Mus musculus), O88597 (parent)
chain: MEGSKASSSTMQVSFVCQRCSQPLKLDTSFKILDRVTIQELTAPLLTTAQAKPGETQEEEANSGEEPFIETRQDGVSRRFIPPARMMSTESANSFTLIGEASDGGTMENLSRRLKVTGDLFDIMSGQTDVDHPLCEECTDTLLDQLDTQLNVTENECQNYKRCLEILEQMNEDDSEQLQRELKELALEEERLIQELEDVEKNRKVVAENLEKVQAEAERLDQEEAQYQREYSEFKRQQLELDDELKSVENQVRYAQIQLDKLKKTNVFNATFHIWHSGQFGTINNFRLGRLPSVPVEWNEINAAWGQTVLLLHALANKMGLKFQRYRLVPYGNHSYLESLTDKSKELPLYCSGGLRFFWDNKFDHAMVAFLDCVQQFKEEVEKGETRFCLPYRMDVEKGKIEDTGGSGGSYSIKTQFNSEEQWTKALKFMLTNLKWGLAWVSSQFYNK

The assay covers variants of B1. The following applies: with bcl2_mouse Bcl2, P10417.
bcl2_mouse Bcl2, P10417, sequence (P10417 whole entry): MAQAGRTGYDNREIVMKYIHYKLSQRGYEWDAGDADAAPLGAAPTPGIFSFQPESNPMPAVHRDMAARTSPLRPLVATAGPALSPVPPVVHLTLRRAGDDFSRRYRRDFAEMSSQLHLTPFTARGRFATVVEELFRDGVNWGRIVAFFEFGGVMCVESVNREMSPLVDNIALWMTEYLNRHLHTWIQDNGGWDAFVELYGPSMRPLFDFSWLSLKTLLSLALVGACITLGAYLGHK
As for MEGSKASSSTMQVSFVCQRCSQPLKLDTSFKILDRVTIQELTAPLLTTAQAKPGETQEEEANSGEEPFIETRQDGVSRRFIPPARMMSTESANSFTLIGEASDGGTMENLSRRLKVTGDLADIMSGQTDVDHPLCEECTDTLLDQLDTQLNVTENECQNYKRCLEILEQMNEDDSEQLQRELKELALEEERLIQELEDVEKNRKVVAENLEKVQAEAERLDQEEAQYQREYSEFKRQQLELDDELKSVENQVRYAQIQLDKLKKTNVFNATFHIWHSGQFGTINNFRLGRLPSVPVEWNEINAAWGQTVLLLHALANKMGLKFQRYRLVPYGNHSYLESLTDKSKELPLYCSGGLRFFWDNKFDHAMVAFLDCVQQFKEEVEKGETRFCLPYRMDVEKGKIEDTGGSGGSYSIKTQFNSEEQWTKALKFMLTNLKWGLAWVSSQFYNK [F121A], the “effect of a mutation on the interaction” value is “decreasing interaction strength”.
